# T1: ELAM-Rg, soluble ELAM-1-IgG1 chimera (ELAM-1 extracellular domain fused to hinge, CH2 and CH3 domains of … (human, UniProt P16581 22-556, limits assumed))
# T1 construct: extracellular domain; Made in COS cells, recovered on protein A-agarose; appeared as disulfide-linked dimers; In adhesion assays it was captured on dishes coated with goat anti-human IgG; also called ELAM-1-Rg; ELAM-1-IgG1 fusion protein; not shown: human IgG1 hinge, CH2 and CH3 domains (genomic fragment of Aruffo et al., Cell 61:1303, 1990)
# T1 sequence (looked up): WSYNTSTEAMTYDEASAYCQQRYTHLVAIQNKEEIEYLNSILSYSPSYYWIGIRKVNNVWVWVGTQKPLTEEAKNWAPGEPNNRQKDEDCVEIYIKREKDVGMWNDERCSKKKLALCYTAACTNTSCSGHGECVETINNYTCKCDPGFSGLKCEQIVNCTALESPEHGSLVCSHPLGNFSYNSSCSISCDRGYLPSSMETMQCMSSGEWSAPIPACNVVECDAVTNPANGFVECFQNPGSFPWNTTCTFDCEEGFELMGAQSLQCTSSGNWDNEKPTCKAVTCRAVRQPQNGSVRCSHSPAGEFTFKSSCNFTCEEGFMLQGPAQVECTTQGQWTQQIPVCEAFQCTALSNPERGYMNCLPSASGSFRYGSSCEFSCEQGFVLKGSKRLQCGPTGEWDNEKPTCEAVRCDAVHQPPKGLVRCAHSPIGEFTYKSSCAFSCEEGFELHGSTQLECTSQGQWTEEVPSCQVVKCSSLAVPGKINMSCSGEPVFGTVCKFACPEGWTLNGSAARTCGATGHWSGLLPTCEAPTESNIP
# Legend:
# [1] = biological target: native constant domain of human IgG1 coexpressed with fucosyltransferase (human, UniProt P01857-1 99-330 = IgG part); assay: not described
# [2] = biological target: T1, ELAM-Rg, soluble ELAM-1-IgG1 chimera …; assay: solid phase: α1-AGP adsorbed to wells, ELAM-Rg at 1 µg/ml, radioiodinated goat anti-human IgG, gamma counter
# Protocol: Amniotic fluid fucosyltransferase was isolated by affinity chromatography and evaluated for its ability to convert α_1-AGP into an ELAM-1 ligand as follows. α(1,3) fucosyltransferase was isolated from concentrated amniotic fluid by fetuin-agarose chromatography as previously described in Hanisch et al. (*Carbohydr. Res.* 178:23, 1988) and Mitsakos et al. (*Biol. Chem. Hoppe-Seyler* 369:661, 1988). 0.8 μCi GDP^14C-fucose (225 Ci/mole) and 100 μg of bovine α_1-AGP (Sigma, St. Louis, Mo.) were added to a reaction mix containing 25 mM Tris-HCl pH 7.0, 35 mM MgCl_2 and 1 mM ATP in a final volume of 120 μl. The reaction was allowed to proceed for 24 h. at 37°, at which time approximately 10% of the ^14C-labeled fucose had been incorporated into TCA-insoluble material. Unincorporated label was removed by centrifugal ultrafiltration (Centricon 10, Amicon, Danvers, Mass.). 20 μl of a 1:5 dilution of the labelled material, or 10 μl of a 1:5 dilution of a similarly constituted reaction mixture lacking labelled GDP-fucose, was adsorbed to plastic dishes (as described above) or to 96 well microtiter plates (Falcon 3911, Becton Dickinson, Oxnard, Calif.). […] Following washing, labelled antibody binding was measured in a gamma counter. Results shown in FIG. 9 are expressed as the mean±standard deviation of quadruplicate determinations and are representative of two independent experiments.
binder,measurement,setting,value
"ELAM-1 (form in this assay not stated) (receptor, UniProt P16581 22-556, looked up) WSYNTSTEAMTYDEASAYCQQRYTHLVAIQNKEEIEYLNSILSYSPSYYWIGIRKVNNVWVWVGTQKPLTEEAKNWAPGEPNNRQKDEDCVEIYIKREKDVGMWNDERCSKKKLALCYTAACTNTSCSGHGECVETINNYTCKCDPGFSGLKCEQIVNCTALESPEHGSLVCSHPLGNFSYNSSCSISCDRGYLPSSMETMQCMSSGEWSAPIPACNVVECDAVTNPANGFVECFQNPGSFPWNTTCTFDCEEGFELMGAQSLQCTSSGNWDNEKPTCKAVTCRAVRQPQNGSVRCSHSPAGEFTFKSSCNFTCEEGFMLQGPAQVECTTQGQWTQQIPVCEAFQCTALSNPERGYMNCLPSASGSFRYGSSCEFSCEQGFVLKGSKRLQCGPTGEWDNEKPTCEAVRCDAVHQPPKGLVRCAHSPIGEFTYKSSCAFSCEEGFELHGSTQLECTSQGQWTEEVPSCQVVKCSSLAVPGKINMSCSGEPVFGTVCKFACPEGWTLNGSAARTCGATGHWSGLLPTCEAPTESNIP",binding result,[1],no binding
"bovine α1-acid glycoprotein fucosylated in vitro with amniotic fluid α(1,3)fucosyltransferase and GDP-fucose (other, UniProt Q3SZR3 19-202, looked up, N-linked glycans fucosylated in vitro (sialyl-Le^X determinants), Adsorbed to plastic or to microtiter wells; also called in vitro-fucosylated α1-acid glycoprotein; enzymatically-fucosylated α1-AGP) QSPECANLMTVAPITNATMDLLSGKWFYIGSAFRNPEYNKSARAIQAAFFYLEPRHAEDKLITREYQTIEDKCVYNCSFIKIYRQNGTLSKVESDREHFVDLLLSKHFRTFMLAASWNGTKNVGVSFYADKPEVTQEQKKEFLDVIKCIGIQESEIIYTDEKKDACGPLEKQHEEERKKETEAS",binding result,[2],binds

# Source: patent US6613746 (GENERAL HOSPITAL, dated 2003)
